Assay results: article PMC3808318, “A type III ACC synthase, ACS7, is involved in root gravitropism in Arabidopsis thaliana” (Journal of Experimental Botany, 2013)
Changes are numbered by the printed parent chain. Blank lines part the entries; values can stand above or below the molecule they belong to.

Legend:
14-3-3ω = 14-3-3ω (UniProt Q01525); test: quartz crystal microbalance (QCM); conditions: reference: untreated 6His-SUMO-ACS7; sites S216,T296,S299
[1] = target: T1, AtCDPK16 (G-AtCDPK16-6His) (Arabidopsis thaliana, UniProt Q7XJR9); test: in vitro kinase assay, […] autoradiography; type: biochemical; conditions: 50 μM ATP spiked with [γ-32P]ATP, labelled compound; 6His-SUMO-AtACS7 as phosphoacceptor; Ca2+ dependent (shown with peptides P5-2 and P11-2); room temperature, 15 min
T1 construct: gene CPK16; recombinant from E. coli, N-terminal G (GST) and C-terminal 6His tags, about 100 kDa with tags
T1 sequence (Q7XJR9 1-571): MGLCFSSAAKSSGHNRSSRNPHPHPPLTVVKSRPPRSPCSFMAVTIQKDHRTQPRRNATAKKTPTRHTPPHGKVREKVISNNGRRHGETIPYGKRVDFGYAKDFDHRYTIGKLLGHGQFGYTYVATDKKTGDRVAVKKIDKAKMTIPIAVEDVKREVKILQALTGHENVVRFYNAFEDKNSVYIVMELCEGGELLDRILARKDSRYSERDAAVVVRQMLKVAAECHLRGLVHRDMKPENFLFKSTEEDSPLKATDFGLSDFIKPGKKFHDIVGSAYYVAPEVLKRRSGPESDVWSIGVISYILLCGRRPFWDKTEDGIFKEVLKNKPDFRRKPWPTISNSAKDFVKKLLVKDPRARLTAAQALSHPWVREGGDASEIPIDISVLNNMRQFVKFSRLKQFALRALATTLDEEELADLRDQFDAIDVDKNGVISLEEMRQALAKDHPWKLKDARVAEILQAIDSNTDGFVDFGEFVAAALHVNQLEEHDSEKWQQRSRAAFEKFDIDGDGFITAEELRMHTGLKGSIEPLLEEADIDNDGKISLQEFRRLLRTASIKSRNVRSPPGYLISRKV

[2] = target: T2, AtCDPK16 (G-AtCDPK16-6His) (Arabidopsis thaliana, UniProt Q7XJR9, S274A/S541A); test: in vitro kinase assay, […] autoradiography; type: biochemical; conditions: 50 μM ATP spiked with [γ-32P]ATP, labelled compound; AtACS7 fusion protein and peptides as phosphoacceptors; room temperature, 15 min
T2 construct: gene CPK16; recombinant from E. coli, N-terminal G (GST) and C-terminal 6His tags, about 100 kDa with tags
T2 sequence (Q7XJR9 1-571 S274A/S541A): T1 sequence (Q7XJR9 1-571) with S274A, S541A

[3] = target: T3, phosphorylated 6His-SUMO–ACS7 (phosphorylated by CDPK16 in vitro in advance) (Arabidopsis thaliana, UniProt Q9STR4 1-447, phosphorylated by CDPK16 in vitro; the sites that the paper identifies with fusion peptides are Ser216, Thr296 and Ser299); test: quartz crystal microbalance (QCM); AFFINIX QN μ, PBS buffer; results: G-14-3-3ω coated on the sensor and 6His-SUMO–ACS7 injected (the methods tell the reverse order); conditions: both partners purified
T3 construct: 1-aminocyclopropane-1-carboxylate synthase 7 (AtACS7), Arabidopsis thaliana; the full-length ACS7 recombinant protein; source: E. coli, purified (Ni-NTA), then phosphorylated by CDPK16 in vitro
T3 sequence (looked up): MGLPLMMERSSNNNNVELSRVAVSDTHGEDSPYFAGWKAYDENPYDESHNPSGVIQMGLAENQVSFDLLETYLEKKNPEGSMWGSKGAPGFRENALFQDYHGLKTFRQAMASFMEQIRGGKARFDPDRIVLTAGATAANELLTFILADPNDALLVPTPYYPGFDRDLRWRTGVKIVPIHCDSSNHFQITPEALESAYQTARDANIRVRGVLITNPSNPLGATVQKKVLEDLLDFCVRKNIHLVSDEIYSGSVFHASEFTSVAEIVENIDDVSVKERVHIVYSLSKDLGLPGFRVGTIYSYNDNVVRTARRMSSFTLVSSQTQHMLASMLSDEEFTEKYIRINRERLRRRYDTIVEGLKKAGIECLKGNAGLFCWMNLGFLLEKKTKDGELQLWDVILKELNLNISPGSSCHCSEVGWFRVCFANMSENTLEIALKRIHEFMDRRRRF

[4] = target: T4, 6His-SUMO–AtACS7 recombinant protein (Arabidopsis thaliana, UniProt Q9STR4 1-447); test: as above; conditions: both partners purified
T4 construct: 1-aminocyclopropane-1-carboxylate synthase 7 (AtACS7), Arabidopsis thaliana; called the full-length ACS7 recombinant protein; The printed name puts 6His and SUMO before ACS7; also called 6His-SUMO–ACS7; SUMO–ACS7; source: E. coli, purified (Ni-NTA)
T4 sequence (looked up): T3 sequence (looked up)

KD (14-3-3ω): same; reference 9.29±1.99×10–9
Molecule: AtACS7 (ACS7, type III ACC synthase) (from UniProt Q9STR4) 6His-SUMO-ACS7 phosphorylated by CDPK16 in vitro

Molecule: Nc1ncnc2c1ncn2[C@@H]1O[C@H](COP(=O)(O)OP(=O)(O)OP(=O)(O)O)[C@@H](O)[C@H]1O [ATP]
in vitro kinase assay, 32P autoradiography [1]: CDPK16 can phosphorylate the recombinant protein 6His-SUMO–AtACS7 in vitro | in vitro kinase assay, 32P autoradiography [2]: autophosphorylation of the mutated recombinant protein (G-CDPK16-6His MT) was greatly reduced

Kd [3]: 5.05 nM | Kd [4]: 9.29 nM
B1: G-14-3-3ω recombinant protein (GST-tagged 14-3-3ω) (natural protein, Arabidopsis, UniProt Q01525 1-259, looked up)
chain: MASGREEFVYMAKLAEQAERYEEMVEFMEKVSAAVDGDELTVEERNLLSVAYKNVIGARRASWRIISSIEQKEESRGNDDHVTAIREYRSKIETELSGICDGILKLLDSRLIPAAASGDSKVFYLKMKGDYHRYLAEFKTGQERKDAAEHTLAAYKSAQDIANAELAPTHPIRLGLALNFSVFYYEILNSPDRACNLAKQAFDEAIAELDTLGEESYKDSTLIMQLLRDNLTLWTSDMQDDAADEIKEAAAPKPTEEQQ
notes: 14-3-3ω (14-3-3 omega), Arabidopsis; The printed name puts G (GST) before 14-3-3ω; also called 14-3-3ω protein; source: E. coli, purified (GST beads, glutathione elution)
